Reference: patent US20240109974A1 (SHANDONG SIMCERE BIOPHARMACEUTICAL, published 2024)
Changes are numbered by the printed parent chain. Each block holds one binder with its values, some of them ahead of it.

Key:
[1] = target: T1, human TNFR2 on the surface of CHO-TNFR2 cells (human, UniProt P20333 23-461); experiment: flow cytometry on CHO-TNFR2 cells; AUC, reference itself
T1 construct: whole, on cells
T1 sequence (looked up): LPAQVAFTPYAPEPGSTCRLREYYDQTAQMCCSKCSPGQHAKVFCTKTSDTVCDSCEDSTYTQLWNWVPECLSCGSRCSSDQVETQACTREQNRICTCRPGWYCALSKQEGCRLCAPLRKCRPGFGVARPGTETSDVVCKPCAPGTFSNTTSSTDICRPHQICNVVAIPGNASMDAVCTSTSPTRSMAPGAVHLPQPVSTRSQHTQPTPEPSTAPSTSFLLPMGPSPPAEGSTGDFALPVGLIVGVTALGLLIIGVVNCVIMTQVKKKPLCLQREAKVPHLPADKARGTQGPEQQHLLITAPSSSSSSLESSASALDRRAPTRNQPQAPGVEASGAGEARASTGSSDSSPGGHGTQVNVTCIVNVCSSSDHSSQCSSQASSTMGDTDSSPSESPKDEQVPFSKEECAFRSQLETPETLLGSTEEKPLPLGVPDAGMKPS
Protocol: The transfected full-length plasmid of human TNFR2 was purchased from Sino Biological (Cat #HG10417-UT, NCBI Ref Seq: NM_001066.2). The experiment was conducted at a cell density within 80%. The cell medium was discarded; the cells were rinsed with PBS, and digested with 1 ml trypsin for 2 minutes; the digestion was stopped with a Ham's F12 complete medium containing 10% FBS, and then a cell suspension was made. The cell suspension was counted, and then an appropriate amount of cell suspension was centrifuged at 350×g; the supernatant was discarded; a corresponding volume of blocking solution (10% FBS+PBS) at a density of 1×10⁷ cells/ml was added to resuspend the cells, and the mixture was incubated at 4° C. for 30 minutes. After the incubation, the mixture was centrifuged at 350×g to remove the supernatant, and the cells were resuspended in a staining buffer (2% FBS+PBS) to a density of 2×10⁶ cells/ml, and spread onto a 96-well plate, with 50 μl of cell suspension added to each well for later use. The antibody was diluted with PBS for 10-fold gradient dilution from the highest concentration of 20 μg/m (twice the concentration); the diluted antibody was added to the well containing 50 μl of cell suspension, and placed on a microplate shaker for shaking at 500 rpm for 1 minute, so that the antibody was fully mixed with the cells; the mixture was incubated at 4° C. for 1 h. After the incubation, the cells were washed twice with the staining buffer, with 100 μl per well, and centrifuged at 350-g for 5 minutes, and the supernatant was discarded. […] After the staining, similarly, the cells were washed twice with the staining buffer; finally, the cells were resuspended in 200 μl of staining buffer; signals were detected by a flow cytometer (Thermo Attune NxT). […] The binding curve of an antibody was drawn with antibody concentration as the abscissa and corresponding mean fluorescence intensity (MFI) fold as the ordinate, and fitted with four parameters (GraphPad Prism9) to calculate the EC50 value.

[2] = target: T2, Cynomolgus TNFR2-His (Sino 90102-C08H) (cynomolgus monkey, UniProt A0A2K5VET2 132-366); experiment: ELISA, cynomolgus TNFR2-His coated; EC50 against 001-WT
T2 construct: Bought protein; also called cynomolgus monkey TNFR2; recombinant cynomolgus monkey TNFR2 protein; not shown: His tag
T2 sequence: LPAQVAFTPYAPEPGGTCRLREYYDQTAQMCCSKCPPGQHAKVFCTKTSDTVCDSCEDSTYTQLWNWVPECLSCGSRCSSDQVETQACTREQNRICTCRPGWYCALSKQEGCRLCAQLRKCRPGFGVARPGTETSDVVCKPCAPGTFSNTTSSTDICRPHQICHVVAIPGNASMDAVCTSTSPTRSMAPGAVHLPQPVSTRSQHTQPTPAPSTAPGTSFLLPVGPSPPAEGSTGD
Protocol: (§1) The test humanized antibody against TNFR2 (as described in Example 1, the antibody was comprised of variable regions linked to IgG-Fc; the WT chimeric antibody also adopted the IgG-Fc structure) was subjected to 3.33-fold gradient dilution, loaded with 100 μl/well, and incubated with shaking at room temperature for 1.5 hours. The plate was washed, and then a working solution of murine anti-human IgG Fc-HRP (diluted at 1:10000) was added, loaded with 100 μl/well, and incubated with shaking at room temperature for 1.0 hour. The plate was washed again, and then the substrate TMB of HRP was added to develop colour. A stop solution was added to stop the reaction, and then a microplate reader (MD 13) was used to read the absorbance value. The binding curve of an antibody was drawn with antibody concentration as the abscissa and corresponding OD value as the ordinate, and fitted with four parameters (GraphPad Prism9) to calculate the EC50 value. The smaller the EC50 value, the stronger the binding ability of an antibody to human/cynomolgus monkey TNFR2. The binding effect of a humanized antibody was normalized to its corresponding human-murine chimeric antibody WT (see SEQ ID NOs: 38-43 for the sequence). The higher the percentage value, the better the binding effect of the humanized antibody. The results of binding of an anti-TNFR2 antibody to a human TNFR2 protein are shown in FIG. 1 and Table 4, and the results of binding of an anti-TNFR2 antibody to cynomolgus monkey TNFR2 are shown in FIG. 2 and Table 4.

[3] = target: T3, Human TNFR2-His (Sino 10417-H08H) (human, UniProt P20333 23-257); experiment: ELISA, human TNFR2-His coated; EC50 against 219-WT
T3 construct: Bought protein; also called recombinant human TNFR2 protein; not shown: His tag
T3 sequence (looked up): T2 sequence with G16S, P36S, Q117P, H164N, A210E, G216S, V223M
Protocol: as §1

[4] = target: T2, Cynomolgus TNFR2-His (Sino 90102-C08H); experiment: ELISA, cynomolgus TNFR2-His coated; EC50 against 219-WT
Protocol: as §1

B2: 001-WT (antibody, V domains shown)
VH: EVQLQESGGGLVQPGGSLNLSCAASGFAFSTYDLSWVRQTPEKRLEWVAYINNGGISTYYSDTVKGRFTISRDNAKNTLYLQMSSLKSEDTAMYYCVRGPFYGSANYFDYWGQGTTVTVSS
VL: EIVMTQSPASLSLSVGETVTITCRTSESIYSNLPWYQQKQGKSPQLLVYDATKLAEGVPSRFSGSESGTQYSLKINSLQSEDFGTYYCQHFWVTPWTFGGGTKLEIK
notes: Human-murine chimeric wild-type molecule; also called human-murine chimeric antibody WT of #001
% Relative activity (Test antibody/WT antibody) [1]: 100%

B3: 001-Hu5 (antibody, V domains shown)
VH: B2 VH with Q5V, N19R, T40A, E42G, R44G, S84N, K87R, S88A, M93V, T116L
VL: DIQMTQSPSSLSASVGDRVTITCRTSESIYSNLPWYQQKPGKSPKLLVYDATKLAEGVPSRFSGSGSGTDYTLTISSLQPEDFATYYCQHFWVTPWTFGQGTKVEIK
notes: Humanized form of #001; also called VH1 + VL4
% Relative activity (WT antibody/test antibody) [2]: 105%

B4: 001-Hu3 (antibody, V domains shown)
VH: B2 VH with Q5V, N19R, T40A, E42G, R44G, S84N, K87R, S88A, M93V, T116L
VL: B3 VL with S43A, V48I
notes: Humanized form of #001; also called VH1 + VL3
% Relative activity (WT antibody/test antibody) [2]: 105%

B5: 001-Hu4 (antibody, V domains shown)
VH: EVQLVESGGGLVQPGGSLRLSCAASGFAFSTYDLSWVRQAPGKGLEWVAYINNGGISTYYSDTVKGRFTISRDNAKNSLYLQMNSLRAEDTAVYYCVRGPFYGSANYFDYWGQGTLVTVSS
VL: B3 VL
notes: Humanized form of #001; also called VH2 + VL4
% Relative activity (WT antibody/test antibody) [2]: 106%

B6: 001-Hu2 (antibody, V domains shown)
VH: B5 VH
VL: B3 VL with V48I, Y71F
notes: Humanized form of #001; also called VH2 + VL2
% Relative activity (WT antibody/test antibody) [2]: 107%

B7: 001-Hu1 (antibody, V domains shown)
VH: B5 VH with S78T
VL: B3 VL with S43A, V48L
notes: Humanized form of #001; also called VH1 + VL1
% Relative activity (WT antibody/test antibody) [2]: 108%

B9: 219-Hu3 (antibody, V domains shown)
VH: QVQLVQSGAEVKKPGSSVKVSCKASGYSFTNYWMNWVRQAPGQGLEWMGMIHPSDTETRLNQNFKDRVTITADKSTSTAYMELSSLRSEDTAVYYCARGEGLGAARSVSMDYWGQGTLVTVSS
VL: DIQMTQSPSSLSASVGDRVTITCRASQDISNYLNWYQQKPDGTVKLLIYYTAILHSGVPSRFSGSGSGTDYSLTISSLQPEDFATYFCQQGNTLPWTFGQGTKVEIK
notes: also called VH5 + VL5
% Relative activity (WT antibody/test antibody) [3]: 84.4%
% Relative activity (WT antibody/test antibody) [4]: 90.4%

Other lines, results leading:

% Relative activity (Test antibody/WT antibody) [1]: 100%
B1: 224-WT (antibody, V domains shown)
VH: EVQLQESGPEIVKPGASVKLSCTASGFNNKDIYMHWVKQRPEQGLEWIGRIDPATGNTKHDPKFQDKATLSSDTSSNTAYLQFSSLTSEDTAVYYCAHSPYGDFGAMDYWGQGTTVTVSS
VL: DIQMTQSPAIMSASLGERVTMTCTASSSVSSNYLHWYQQKPGSSPKLWIYSTSNLPSGVPARFSGSGSGTSYSLTISSMEAEDAATYYCHQYHRSPWTFGGGTKLEIK
notes: Human-murine chimeric wild-type molecule; also called human-murine chimeric antibody WT of #224

% Relative activity (Test antibody/WT antibody) [1]: 100%
B8: 219-WT (antibody, V domains shown)
VH: EVQLQESGAELVRPGASVKLSCKASGYSFTNYWMNWVKQRPGQGLEWIGMIHPSDTETRLNQNFKDKATLTVDKSSSTSYMQLSSPTSEDSAVYYCARGEGLGAARSVSMDYWGQGTTVTVSS
VL: B9 VL with Q3L, V15L, T22S, L46V, S77N, Q79E, P80Q, F83I, Q100G, V104L
notes: Human-murine chimeric wild-type molecule

% Relative activity (WT antibody/test antibody) [3]: 96.5%
% Relative activity (WT antibody/test antibody) [4]: 93.4%
B10: 219-Hu5 (antibody, V domains shown)
VH: B9 VH with A72V
VL: B9 VL
notes: also called VH7 + VL5

% Relative activity (WT antibody/test antibody) [3]: 95.9%
% Relative activity (WT antibody/test antibody) [4]: 102%
B11: 219-Hu2 (antibody, V domains shown)
VH: B9 VH with R67K, V68A
VL: B9 VL
notes: also called VH4 + VL5

% Relative activity (WT antibody/test antibody) [3]: 83.1%
% Relative activity (WT antibody/test antibody) [4]: 77.5%
B12: 219-Hu1 (antibody, V domains shown)
VH: B9 VH with S16A, G44R, A72R, K74T, T76A
VL: B9 VL
notes: also called VH3 + VL5

% Relative activity (WT antibody/test antibody) [3]: 99.7%
% Relative activity (WT antibody/test antibody) [4]: 93.1%
B13: 219-Hu4 (antibody, V domains shown)
VH: B9 VH with R38K, M48I, R67K, V68A, I70L, A72V
VL: B9 VL
notes: also called VH6 + VL5
